We go through one molecule from patent US7361341B2, “Methods of treating cancer using antibodies that immunospecifically bind to trail receptors” (Human Genome Sciences, Inc., priority 2001, dated 2008).

What all share (test): Specificity phage ELISA
Common to all, as to assay type: binding
Holding throughout (settings): antigen coated at 1 μg/ml, absorbance at 450 nm

The target of one test is T1, TR10 (Homo sapiens, UniProt Q9UBN6, L310S).
T1 sequence (Q9UBN6 56-386 L310S): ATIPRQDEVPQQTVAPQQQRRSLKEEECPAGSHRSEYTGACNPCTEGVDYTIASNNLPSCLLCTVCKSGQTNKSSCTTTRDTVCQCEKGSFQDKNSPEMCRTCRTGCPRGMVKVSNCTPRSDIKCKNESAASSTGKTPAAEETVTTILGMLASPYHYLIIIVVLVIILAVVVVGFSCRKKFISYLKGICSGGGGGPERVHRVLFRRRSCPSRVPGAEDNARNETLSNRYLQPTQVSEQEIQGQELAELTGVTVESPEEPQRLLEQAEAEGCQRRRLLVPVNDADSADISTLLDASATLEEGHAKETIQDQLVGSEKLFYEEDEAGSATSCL
On the procedure:
(§1) To determine the specificity of the antibodies which bound TR4, a phage ELISA was performed against human TR4 fusion protein, and a panel of related and unrelated human antigens TR7, TR5, TR10, BlyS (described in International Patent Publication Numbers WO98/18921 and WO00/50597, which are both herein icorprated by reference in their entireties), irrelevant fusion protein and BSA.
(§2) Individual E. coli colonies containing phagemid were inoculated into 5 ml 2YTAG and incubated at 37° C. for 4 hours, shaking. M13K07 helper phage (Pharmacia) was added to each tube to an moi of 10 and incubated for […], the first 30 minutes static and the final 30 minutes with gentle shaking. Cells were pelleted by centrifugation at 3,500 rpm for 10 minutes. The phage containing supernatant (5 ml) was carefully transferred to a fresh tube, 1 ml of 6 MPBS added and then incubated at room temperature for 1 hour to pre-block the phage prior to ELISA.
(§3) Flexible 96-well plates (Falcon) were coated overnight at 4° C. with each antigen (1 μg/ml). All antigens were coated in PBS. After coating, the solutions were removed from the wells, and the plates were blocked for 1 hour at room temperature in MPBS. The plates were washed 3 times with PBS and then 50 μl of pre-blocked phage was added to each well. The plates were incubated at room temperature for 1 hour and then washed with 3 changes of PBST followed by 3 changes of PBS.
(§4) To each well, 50 μl of an anti-M13-HRP conjugate (Pharmacia) at a 1 in 5000 dilution in MPBS was added and the plates incubated at room temperature for 1 hour. Each plate was washed three times with PBST followed by three times with PBS.
(§5) Fifty μl of TMB substrate was then added to each well, and incubated at room temperature for 30 minutes or until colour development. The reaction was stopped by the addition of 25 μl of 0.5 M H2SO4. The signal generated was measured by reading the absorbance at 450 nm (A450) using a microtitre plate reader (Bio-Rad 3550).

The target of a further test is T2, human TR4 fusion protein (Homo sapiens, UniProt O00220, H141R/R209T).
T2 construct: made in house
Here is the method: as §1, §2, §3, §4, §5

In test [1] the test system is irrelevant fusion protein. On the procedure:
as §1, §2, §3, §4, §5

The target in the next test is T3, TR5 (Homo sapiens, UniProt O14798, I229T).
T3 sequence (O14798 with tags, fused parts or gaps I229T limits assumed): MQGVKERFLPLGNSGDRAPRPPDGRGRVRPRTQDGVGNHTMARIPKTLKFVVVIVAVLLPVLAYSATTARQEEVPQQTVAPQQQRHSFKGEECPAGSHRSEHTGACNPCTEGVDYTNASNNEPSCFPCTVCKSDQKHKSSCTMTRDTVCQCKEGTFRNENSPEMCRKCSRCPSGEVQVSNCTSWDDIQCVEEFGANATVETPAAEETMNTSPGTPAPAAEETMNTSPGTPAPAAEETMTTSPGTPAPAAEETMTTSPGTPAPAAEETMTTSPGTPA
Here is the method:
as §1, §2, §3, §4, §5

The target in a further test is BLyS (Homo sapiens, UniProt Q9Y275). Here is the method:
as §1, §2, §3, §4, §5

In a further test the target is TR7 (Homo sapiens, UniProt O14763). On the procedure:
as §1, §2, §3, §4, §5

Chain of BLyS (Q9Y275 whole entry): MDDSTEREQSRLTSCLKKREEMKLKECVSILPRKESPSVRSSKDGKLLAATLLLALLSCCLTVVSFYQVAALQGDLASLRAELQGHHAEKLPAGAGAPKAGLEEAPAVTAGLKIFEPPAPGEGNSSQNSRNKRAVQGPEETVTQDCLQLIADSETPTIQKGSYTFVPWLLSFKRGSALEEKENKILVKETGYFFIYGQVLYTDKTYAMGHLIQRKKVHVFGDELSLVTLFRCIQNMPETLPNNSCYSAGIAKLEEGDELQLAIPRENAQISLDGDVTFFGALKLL
T2 sequence (O00220 109-240 H141R/R209T): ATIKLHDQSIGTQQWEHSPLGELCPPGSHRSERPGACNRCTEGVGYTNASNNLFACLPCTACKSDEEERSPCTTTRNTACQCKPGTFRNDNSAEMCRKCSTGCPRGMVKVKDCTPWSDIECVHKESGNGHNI
Chain of TR7 (O14763 56-411 isoform O14763-2 limits assumed): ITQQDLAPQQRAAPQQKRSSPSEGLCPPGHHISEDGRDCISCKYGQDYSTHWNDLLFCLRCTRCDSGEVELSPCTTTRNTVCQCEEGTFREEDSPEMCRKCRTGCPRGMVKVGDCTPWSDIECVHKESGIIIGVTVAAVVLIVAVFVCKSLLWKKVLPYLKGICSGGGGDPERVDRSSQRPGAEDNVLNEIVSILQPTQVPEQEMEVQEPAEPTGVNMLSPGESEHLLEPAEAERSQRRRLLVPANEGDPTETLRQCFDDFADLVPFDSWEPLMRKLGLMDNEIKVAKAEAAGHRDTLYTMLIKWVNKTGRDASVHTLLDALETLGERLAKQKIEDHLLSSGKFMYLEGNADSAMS

B1: T1014B11: scFv that immunospecifically binds TRAIL receptor TR4, protein SEQ ID NO:47 (protein)
scFv: EVQLVQSGAEVKKPGASVKVSCKISGDSFTAYFIHWLRQAPGEGLEWMGWFNPISGTAGSPQKFHGRVAMTRDTSISTAYMELTRLASDDTAIYYCARQHHSNTFDPWGQGTLVTVSSGGGGSGGGGSGGGGSAQSALTQPASVSGSPGQSITISCTGTNSDVGGYNYVSWYQQHPGKAPKLMIYEVNNRPSGVSNRFSGSKSGNTASLTISGLQADDEADYYCSSYTTSNTWVFGGGTKLTVLG
modifications: T1014B11 scFv
For the molecule B1, the “binding to TR10” value in the test with TR10 is reported as “not”. Besides, the “binding to TR4” value with human TR4 fusion protein is “bind”. For the same molecule, the “binding to an irrelevant fusion protein” value in test [1] was “not”. Also, the “binding to TR5” value in the test with TR5 is listed as “not”. For the same molecule, the “binding to BLyS” value with BLyS was “not”. The “binding to TR7” value with TR7 is “not”.
